{"source": "the Human Domainome abundance scans (Beltran et al. 2025)", "parents": {"B1": {"name": "COUP transcription factor 1, residues 83 to 159; numbered along this chain, P10589 (parent)", "chain": "HIECVVCGDKSSGKHYGQFTCEGCKSFFKRSVRRNLTYTCRANRNCPIDQHHRNQCQYCRLKKCLKVGMRREAVQRG"}}, "note": "± gives the uncertainty stated by the source."}
{"variants_of": "B1", "experiment": "abundance fitness (aPCA) (normalised: wild type 0, dead -1); higher = more abundant; growth selection in yeast, the domain comes from the species named", "settings": "Homo sapiens"}
{"variant": "HIECVVCGDKSSGKHYGKFTCEGCKSFFKRSVRRNLTYTCRANRNCPIDQHHRNQCQYCRLKKCLKVGMRREAVQRG", "note": "[Q18K]", "abundance fitness": "-0.031 ± 0.12"}
{"variant": "HIECVVCGDKSSGKHYGQFTCEKCKSFFKRSVRRNLTYTCRANRNCPIDQHHRNQCQYCRLKKCLKVGMRREAVQRG", "note": "[G23K]", "abundance fitness": "-0.044 ± 0.19"}
{"variant": "HIECVVCGDKSSGKHYGQFTCEVCKSFFKRSVRRNLTYTCRANRNCPIDQHHRNQCQYCRLKKCLKVGMRREAVQRG", "note": "[G23V]", "abundance fitness": "-0.338 ± 0.11"}
{"variant": "HIECVVCGDKSSGKHYGQFTCEGCKSFFKRSVRRNLTYTCRANRNCPIDQHHRNQCQYCRLKKCLKVGMRRAAVQRG", "note": "[E72A]", "abundance fitness": "-0.237 ± 0.048"}
{"variant": "HMECVVCGDKSSGKHYGQFTCEGCKSFFKRSVRRNLTYTCRANRNCPIDQHHRNQCQYCRLKKCLKVGMRREAVQRG", "note": "[I2M]", "abundance fitness": "-0.078 ± 0.1"}
{"variant": "HITCVVCGDKSSGKHYGQFTCEGCKSFFKRSVRRNLTYTCRANRNCPIDQHHRNQCQYCRLKKCLKVGMRREAVQRG", "note": "[E3T]", "abundance fitness": "-0.058 ± 0.078"}
{"variant": "HIECVVCGDKSSGKHYGQFTCEGCKWFFKRSVRRNLTYTCRANRNCPIDQHHRNQCQYCRLKKCLKVGMRREAVQRG", "note": "[S26W]", "abundance fitness": "0.014 ± 0.093"}
{"variant": "HIECVVCGDKSSGKHYGQFTCEGCKSFFKRSVRRNLTYTCRANRNCPIDQHHRNQCQYCRLKKQLKVGMRREAVQRG", "note": "[C64Q]", "abundance fitness": "-0.8 ± 0.13"}
{"variant": "HIECVVCGDKSSGKHYGQFTCEGCKSFFKRSFRRNLTYTCRANRNCPIDQHHRNQCQYCRLKKCLKVGMRREAVQRG", "note": "[V32F]", "abundance fitness": "-0.068 ± 0.16"}
{"variant": "HIECVVCGDKSSGKHYGQFTCEGCKSFFKRSVRRNLTYTCRANRNCPIDQHHRNQCQYCRTKKCLKVGMRREAVQRG", "note": "[L61T]", "abundance fitness": "-0.771 ± 0.092"}
{"variant": "HIECVVCGDKSSGKHYGQFTCEGCKSFFKRSVRRNLTYTHRANRNCPIDQHHRNQCQYCRLKKCLKVGMRREAVQRG", "note": "[C40H]", "abundance fitness": "-1.21 ± 0.33"}
{"variant": "HIECVVCGDKSSGKHYGQFTCEGWKSFFKRSVRRNLTYTCRANRNCPIDQHHRNQCQYCRLKKCLKVGMRREAVQRG", "note": "[C24W]", "abundance fitness": "-0.707 ± 0.09"}
{"variant": "HIECVVCGDKSSGKHYGQFTCEGTKSFFKRSVRRNLTYTCRANRNCPIDQHHRNQCQYCRLKKCLKVGMRREAVQRG", "note": "[C24T]", "abundance fitness": "-0.885 ± 0.19"}
{"variant": "HIECVVCGDKSSGKHYGQFTCEGCKSFFGRSVRRNLTYTCRANRNCPIDQHHRNQCQYCRLKKCLKVGMRREAVQRG", "note": "[K29G]", "abundance fitness": "0.068 ± 0.031"}
{"variant": "HIECVVCGDKSSGKHYGQFTCEGCKSFFKRSVRRNLTYTCRANRNCPIDQHARNQCQYCRLKKCLKVGMRREAVQRG", "note": "[H52A]", "abundance fitness": "0.041 ± 0.041"}
{"variant": "HIECVVCGDKSSGKHYGQFTCEGCKSFFKRSVRRNLTYTCRANRNCPIDQHFRNQCQYCRLKKCLKVGMRREAVQRG", "note": "[H52F]", "abundance fitness": "-0.068 ± 0.062"}
{"variant": "EIECVVCGDKSSGKHYGQFTCEGCKSFFKRSVRRNLTYTCRANRNCPIDQHHRNQCQYCRLKKCLKVGMRREAVQRG", "note": "[H1E]", "abundance fitness": "-0.007 ± 0.18"}
{"variant": "GIECVVCGDKSSGKHYGQFTCEGCKSFFKRSVRRNLTYTCRANRNCPIDQHHRNQCQYCRLKKCLKVGMRREAVQRG", "note": "[H1G]", "abundance fitness": "0.277 ± 0.087"}
{"variant": "HIECVVCGDKSSGKHYGQFTCEGCKSFFKRSVRRNLTYTCRANRNIPIDQHHRNQCQYCRLKKCLKVGMRREAVQRG", "note": "[C46I]", "abundance fitness": "-0.267 ± 0.2"}
{"variant": "HIECVVCGDKSSGKHYGQFTCEGCKSFFKRSVRRNLTYTCRANRNCPIRQHHRNQCQYCRLKKCLKVGMRREAVQRG", "note": "[D49R]", "abundance fitness": "-0.313 ± 0.056"}
{"variant": "HIECVVCGDKSSGKHYGQFTCEGCKSFFKRSVRRNLTYTCRANRNCPIVQHHRNQCQYCRLKKCLKVGMRREAVQRG", "note": "[D49V]", "abundance fitness": "-0.141 ± 0.052"}
{"variant": "HIECVVCWDKSSGKHYGQFTCEGCKSFFKRSVRRNLTYTCRANRNCPIDQHHRNQCQYCRLKKCLKVGMRREAVQRG", "note": "[G8W]", "abundance fitness": "-0.218 ± 0.11"}
{"variant": "HIECVVCQDKSSGKHYGQFTCEGCKSFFKRSVRRNLTYTCRANRNCPIDQHHRNQCQYCRLKKCLKVGMRREAVQRG", "note": "[G8Q]", "abundance fitness": "0.146 ± 0.1"}
{"variant": "HIECVVCADKSSGKHYGQFTCEGCKSFFKRSVRRNLTYTCRANRNCPIDQHHRNQCQYCRLKKCLKVGMRREAVQRG", "note": "[G8A]", "abundance fitness": "0.016 ± 0.061"}
{"variant": "HIECVVCGDKSSGKHYGQFTCEGCKSFFKRSVRRNLTYTCRANRNCPIDQWHRNQCQYCRLKKCLKVGMRREAVQRG", "note": "[H51W]", "abundance fitness": "0.012 ± 0.048"}
{"variant": "HIECVVCGDKSSGKHEGQFTCEGCKSFFKRSVRRNLTYTCRANRNCPIDQHHRNQCQYCRLKKCLKVGMRREAVQRG", "note": "[Y16E]", "abundance fitness": "-0.05 ± 0.081"}
{"variant": "HIECVVCGDKSSGKHYGQFTCEGCKSFFKRSVRRNLTYTCRANRNCPIDQHHRNMCQYCRLKKCLKVGMRREAVQRG", "note": "[Q55M]", "abundance fitness": "-0.126 ± 0.072"}
{"variant": "HIECVVCGDKSSGKHYGQFTCEGCKSFFKRSVRRNLTYTCRANRNCPIDQHHRNHCQYCRLKKCLKVGMRREAVQRG", "note": "[Q55H]", "abundance fitness": "0.017 ± 0.052"}
{"variant": "HIECVVCGDKSSGKHYGQFTCEGCKSFFKRSVRRNLTYTCRANRNCPIDQHHRNWCQYCRLKKCLKVGMRREAVQRG", "note": "[Q55W]", "abundance fitness": "0.095 ± 0.051"}
{"variant": "HIECVVCGDKSSGKHYGQFTYEGCKSFFKRSVRRNLTYTCRANRNCPIDQHHRNQCQYCRLKKCLKVGMRREAVQRG", "note": "[C21Y]", "abundance fitness": "-0.974 ± 0.4"}
{"variant": "HIECVVCGDKSSGKLYGQFTCEGCKSFFKRSVRRNLTYTCRANRNCPIDQHHRNQCQYCRLKKCLKVGMRREAVQRG", "note": "[H15L]", "abundance fitness": "0.001 ± 0.14"}
{"variant": "HIECVVCGDKSSGKHYGQFTCEGCDSFFKRSVRRNLTYTCRANRNCPIDQHHRNQCQYCRLKKCLKVGMRREAVQRG", "note": "[K25D]", "abundance fitness": "0.183 ± 0.075"}
{"variant": "HIECVVCGDRSSGKHYGQFTCEGCKSFFKRSVRRNLTYTCRANRNCPIDQHHRNQCQYCRLKKCLKVGMRREAVQRG", "note": "[K10R]", "abundance fitness": "-0.214 ± 0.049"}
{"variant": "HIECVVCGDKSSGKHYGQFTCEGCKSFFKRSVRRNLTYTCRANTNCPIDQHHRNQCQYCRLKKCLKVGMRREAVQRG", "note": "[R44T]", "abundance fitness": "0.054 ± 0.055"}
{"variant": "HIECVVCGDKSSGKHYGQFTCEGCKSFFKRSVRRNLTYTCRANRNCPIDQHHRNQCQNCRLKKCLKVGMRREAVQRG", "note": "[Y58N]", "abundance fitness": "-0.548 ± 0.11"}
